Laboratory results as given in the supplement of paper PMC9170038.

System: MS2 coat protein
Experiment: apparent KD of MS2 coat protein; designed switch direction (-1 OFF switch, 1 ON switch): -1; higher = weaker reporter binding
Summary of the method: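 RNA switches sharing common flanks were transcribed by stalled E. coli RNA polymerase on Illumina chips. A doubling series of SNAP-549-labelled MS2 coat protein, from 0.7 or 1.5 nM to 3 µM, was applied in Tris-HCl pH 7.5 buffer with KCl, MgCl2, BSA, DTT, tRNA and Tween-20. Each step lasted 0.8–1.5 h at the bottom of the series and 10–20 min at the top. Normalised cluster fluorescence was curve-fitted, giving apparent KD as the per-design median over clusters.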

[1] = Eterna round: R95, input ligand: FMN 200 uM
[2] = Eterna round: R95, input ligand: microRNA oligo, concentration not stated
[3] = Eterna round: R95, input ligand: none
[4] = input ligand: microRNA oligo, concentration not stated

Sequence	apparent KD of MS2 coat protein (input ligand: FMN 200 uM) [µM]	apparent KD of MS2 coat protein (input ligand: none) [µM]	apparent KD of MS2 coat protein [1] [µM]	apparent KD of MS2 coat protein [2] [µM]	apparent KD of MS2 coat protein [3] [µM]	apparent KD of MS2 coat protein [4] [µM]
ACAAGCUUGUAAUGACUUAACAUGAGGAUCACCCAUGUAAAUGGAAGAACCAACUUGAUAUGAUUUACUCGUCUUAU [JR_STOV1_Sub010] (Eterna round: R97, puzzle: Sensor, turn-off variant 1)	1.14	1.03	–	–	–	–
ACAAGCUUUUUCAUAUCUUACAUGAGGAUCACCCAUGUUUUUGCAAUUAUGUUUGGGCUCUUUUGAGCUCGUCUUAU [JR_STOV1_Sub048] (Eterna round: R97, puzzle: Sensor, turn-off variant 1)	0.0135	0.0144	–	–	–	–
ACAAGCUUUUUGCAUGUUAGUUUUGUUGCUUCGUAUGUAACAUGAGGAUCACCCAUGUAAGACUGAUGUCGUCGUUU [JR_SV3TOV2_Sub088] (puzzle: Sensor v3, turn-off variant 2)	–	–	0.0449	0.0478	0.0616	–
ACAAGCUUUUUGCUCGUCUACAUGAGGAUCACCCAUGUAGUGAGAUAGUGGUGAAGAUAGAUUGAGCGUAGUAGGUA [JR_SV3TOV1_Sub071] (puzzle: Sensor v3, turn-off variant 1)	–	–	0.0269	0.0517	0.0215	–
ACAAGCUUUUUGUUCGUCUUAUAAUAAUAAAUAAAUAUAACAUGAGGAUCACCCAUGUUGAGAAGACAGCCUCAUGU [Sesor Array 23 - Jieux - Sensor v3, turn-off variant 2] (puzzle: Sensor v3, turn-off variant 2)	–	–	0.121	0.0427	0.104	–
ACACAGCGAGGAUAUACAUGAGGAUCACCCAUGUGGCGGCCGUUACGGUAGCACUAGUGUAGAAGGCGCAUUGG [EX3 #35] (Eterna round: R97, puzzle: Exclusion 3)	0.155	0.192	–	–	–	–
ACACGGAUAGGAUAUACUUGAGGAUCACCCAAGUGGAACCGCUUGUCCCGAUCCUAGAGUAGAAGGAUCAAAUA [Anusxebiat] (Eterna round: R97, puzzle: Exclusion 3)	0.149	0.0443	–	–	–	–
ACAGCUAUAGGAUAUACAGCGAGGAAACUUAGUGGGAUCGGACAUGAGGAUCACCCAUGUAGAAGGAUAGACGG [Eternabot (L2) Solution 85] (Eterna round: R97, puzzle: Exclusion 2)	0.149	0.0976	–	–	–	–
ACAGUCACAUGGGUACCAGACAUGAGGAUCACCCAUGUGACAGGUACUUUGUGGCGUCUUGUAUAAUUAAUAAUCAA [Sensor v2, turn off variant (Maaon - vinnie MOD7)] (Eterna round: R96, puzzle: Sensor v2, turn-off variant)	0.00997	0.0134	–	–	–	0.0143
ACAGUUUUGCAAGGAUAUCGUUUUAGUUUAUUACGAGAAGGUGCUUAAGUAAUUUCUUUGGGUUGACAUGAGGAUCACCCAUGU [JR_ExcNG1_Sub058] (Eterna round: R96, puzzle: Exclusion NG 1)	0.16	0.139	–	–	–	0.128
ACAUGAAGAUAGGAUAUCCGCGAAAAUGGUCUAGGAGAAGGGUCUACAUGAGGAUCACCCAUGUAGCAGUGGAU [Eternabot (L1) Solution 79] (Eterna round: R97, puzzle: Exclusion 6)	0.0147	0.0167	–	–	–	–
ACAUGAGGAUCACCCAUGUACACGUAAUGGCUCAUGUAGAGUGAGGAUAUGUGAGACGAACGAGCACAGAAGGCACAAGACAGG [Deportation 10 - Jieux - Exclusion NG 3] (Eterna round: R96, puzzle: Exclusion NG 3)	0.0383	0.0348	–	–	–	0.0238
ACAUGAGGAUCACCCAUGUCAACGAAAAGGCUCAUGUAGAGUGAGGAUAUGUGAGACGAACGAGAACAGAAGGCACAAGACAGG [Deportation 3 - Jieux - Exclusion NG 3] (Eterna round: R96, puzzle: Exclusion NG 3)	0.0318	0.0384	–	–	–	0.0166
ACAUGAGGAUCACCCAUGUCAGGCGGGUCCACUCCGGCUGUUGAGGAUAUAGUCCGGUAUCCGCGCUAGAAGGUGAGGGCCGGC [Aenatbe mod 24] (Eterna round: R96, puzzle: Exclusion NG 3)	0.0206	0.0199	–	–	–	0.0154
ACAUGAGGAUCACCCAUGUCCGGCUGGUCCGUCUCGGCUGUCGAGGAUAUGGCUCGGUGUCCGCGCUAGAAGGCGGGAGCCGGA [Aenatbe mod 76] (Eterna round: R96, puzzle: Exclusion NG 3)	0.0316	0.0454	–	–	–	0.0272
ACAUGAGGAUCACCCAUGUCCGUCUGGUCUGUCUCGGCUGUCGAGGAUAUAGCUCGGUAUCCGCGCUAGAAGGCGGGAGUCGGA [Aenatbe mod 94] (Eterna round: R96, puzzle: Exclusion NG 3)	0.0243	0.0323	–	–	–	0.0242
ACAUGAGGAUCACCCAUGUCUGGCUGGUCUGCUCCGGCUGUUGAGGAUAUAGUCCGGUGUUCGCGCUAGAAGGUGAGGGCUGGA [Aenatbe mod 41] (Eterna round: R96, puzzle: Exclusion NG 3)	0.107	0.0773	–	–	–	0.0495
ACAUGAGGAUCACCCAUGUCUGGCUGGUCUGCUCCGGUUGUUGAGGAUAUAGUUCGGUGUUCGCGCUAGAAGGUGAGGGCUGGA [Aenatbe mod 39] (Eterna round: R96, puzzle: Exclusion NG 3)	0.26	0.176	–	–	–	0.139
ACAUGAGGAUCACCCAUGUGAAAACAAUGGCUGACACAGAGAUAGGAUAUAUGUGCAUAUCAAACAUAGAAGGGUCAUAACUGG [Deportation 85 - Jieux - Exclusion NG 3] (Eterna round: R96, puzzle: Exclusion NG 3)	–	–	–	–	–	0.0406
ACAUGAGGAUCACCCAUGUUAUGUUGGGUACUAAAUUAUUCGUAGGAUAUCGUAGCUAGUUUGUGCGAGAAGGACGCAGUUUUU [JR_ExcNG3_Sub060] (Eterna round: R96, puzzle: Exclusion NG 3)	–	–	–	–	–	0.202
ACAUGAGGAUCACCCAUGUUAUGUUGGGUACUAAAUUAUUCGUAGGAUAUCGUAGCUAGUUUGUGCGAGAAGGACGCAUUUUUU [JR_ExcNG3_Sub059] (Eterna round: R96, puzzle: Exclusion NG 3)	0.205	0.273	–	–	–	0.229
ACAUGAGGAUCACCCAUGUUCGGCUGGUCCGUCUCGGCUGUCGAGGAUAUAGUUCGGUGUCCGCGCUAGAAGGCGGGAGCUGGC [Aenatbe mod 65] (Eterna round: R96, puzzle: Exclusion NG 3)	0.0341	0.0426	–	–	–	0.0294
ACAUGAGGAUCACCCAUGUUUAUUGGGUACUAUACUAUCAGCAAGGAUAUGCAAAUUUUUUUUACGCAGAAGGUGCAGGAACCU [JR_ExcNG3_Sub070] (Eterna round: R96, puzzle: Exclusion NG 3)	–	–	–	–	–	0.355
ACAUGAGGAUCACCCAUGUUUGGCUGGUUUUCUCCGGCUGUCGAGGAUAUAGUACGGUAUCCGCGCUAGAAGGUGAGGGCCGGC [Aenatbe mod 1] (Eterna round: R96, puzzle: Exclusion NG 3)	0.0155	0.0158	–	–	–	0.0143
ACAUGAGGAUCACCCAUGUUUUUUGGGUACUCUUGAUACAGCAAGGAUAUGCAUUAUUUAUGUACGCAGAAGGUGCAUUACGUC [JR_ExcNG3_Sub063] (Eterna round: R96, puzzle: Exclusion NG 3)	–	–	–	–	–	0.837
ACAUGAGGAUCACCCAUGUUUUUUGGGUACUCUUGUUUCUGCAAGGAUAUGCAUUAUUUAUGUACGCAGAAGGUGCAUUACGUC [JR_ExcNG3_Sub062] (Eterna round: R96, puzzle: Exclusion NG 3)	0.696	0.962	–	–	–	0.692
ACAUGUAUUGCAGGAUAUGGGACACAUGAGGAUCACCCAUGUGACUACAUGUCAUACCACGGGUCUCAGAAGGGUAUGUACAUG [Ex NG2 #40] (Eterna round: R96, puzzle: Exclusion NG 2)	0.0289	0.023	–	–	–	0.0151
ACAUGUCAUCGAGGAUAUUGGACACAUGAGGAUCACCCAUGUACUCGGAUGCUCUAGCAUGAGUUCGAGAAGGCGAUGUACAUU [Ex NG2 #79] (Eterna round: R96, puzzle: Exclusion NG 2)	1.35	0.593	–	–	–	0.234
